Blank lines part the entries; values can stand above or below the binder they belong to. Primed or numbered codes have the meaning given here. *: point of attachment. thiosuccinyl = lysine reacted with methyl 3-[(methylthio)thiocarbonyl]propanoate, then 1 M NaOH (thioxo peptide), O=C(O)CCC(=S)*; thioacetyl = lysine reacted with ethyl dithioacetate (thioxo peptide), CC(=S)*; Bz′ = not defined here
Molecular target: T1, human sirtuin 2 (human, UniProt Q8IXJ6 1-389)
T1 construct: sirtuin 2 (Sirt2), human; also called Sirt2
T1 sequence (looked up): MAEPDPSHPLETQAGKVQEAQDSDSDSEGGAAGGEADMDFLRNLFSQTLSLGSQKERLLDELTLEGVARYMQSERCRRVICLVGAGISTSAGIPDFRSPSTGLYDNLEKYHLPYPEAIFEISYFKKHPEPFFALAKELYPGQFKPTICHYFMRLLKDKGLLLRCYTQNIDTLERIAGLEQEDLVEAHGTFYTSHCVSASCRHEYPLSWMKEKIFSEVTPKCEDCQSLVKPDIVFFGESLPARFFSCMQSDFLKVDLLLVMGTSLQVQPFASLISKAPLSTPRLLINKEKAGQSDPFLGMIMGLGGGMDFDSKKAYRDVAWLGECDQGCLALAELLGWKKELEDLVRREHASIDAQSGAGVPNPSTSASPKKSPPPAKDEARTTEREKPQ
Test: enzyme inhibition kinetics (continuous fluorescence activity assay); 96-well MTP fluorescence reader; kcat and KM for substrate 3 recorded at varying inhibitor concentrations (0.01-600 μM); 500 μM NAD+; 20 mM TRIS/HCl pH 7.8, 150 mM NaCl, 5 mM MgCl2; 37 °C; Ki from competitive and non-competitive inhibition models
Settings: both partners purified

Ki: 0.3 ± 0.1 µM
B1: thioxo peptide 10 based on the CPS1 peptide (peptide)
peptide: {Bz′}-GVLK(thioacetyl)EYGV-NH2
notes: source: synthetic peptide

Ki: 50 ± 9.9 µM
B2: thioxo peptide 11 based on the CPS1 peptide (peptide)
peptide: {Bz′}-GVLK(thiosuccinyl)EYGV-NH2
notes: source: synthetic peptide
